Reference: patent US20200095340A1

B1: anti-DLL3 trispecific protein, DLL3 binder 2E02 (protein, part only; not given: anti-CD3 fragment and anti-albumin domain, part only)
chain, part: EVQLVESGGGLVQPGGSLTLSCVASGSTSAINAMGWYRRAPGKQRELVAGISSDGSKVYVDSVKGRFTISRDNAKNSVYLQMNSLRAEDTAVYYCYYFRTVSGSSQRYWGQGTLVTVSSGGGGSGGGSGGGGSGGGSHHHHHH
B2: anti-DLL3 trispecific protein containing 1H012 (protein, part only; not given: anti-CD3 fragment and anti-albumin sdAb, part only)
chain, part: EVQLVESGGGLVQPGGSLTLSCVASGSTSSINAMGWYRRAPGKQRELVAGISSDGSKVYVDSVKGRFTISRDNAKNSVYLQMNSLRAEDTAVYYCYYFRTVSGSSMPYWGQGTLVTVSSGGGGSGGGSGGGGSGGGSHHHHHH
B3: anti-DLL3 trispecific protein, DLL3 binder 2E011 (protein, part only; not given: anti-CD3 fragment and anti-albumin sdAb, part only)
chain, part: EVQLVESGGGLVQPGGSLTLSCVASGSTSSINAIGWYRRAPGKQRELVAGISSDGSSVYADSVKGRFTISRDNAKNSVYLQMNSLRAEDTAVYYCYYFRRVSGSSMRYWGQGTLVTVSSGGGGSGGGSGGGGSGGGSHHHHHH
B4: anti-DLL3 trispecific protein, DLL3 binder 1C03 (protein, part only; not given: CD3 fragment and albumin sdAb, part only)
chain, part: EVQLVESGGGLVQPGGSLTLSCVASGSTSSINAMAWYRRAPGKQRELVAGISSDNSKVYADSVKGRFTISRDNAKNSVYLQMNSLRAEDTAVYYCYYFRTVGGSSMRYWGQGTLVTVSSGGGGSGGGSGGGGSGGGSHHHHHH
B5: anti-DLL3 trispecific protein containing 2E05-M106Q (protein, part only; not given: CD3 binder and albumin binder, part only)
chain, part: EVQLVESGGGLVQPGGSLTLSCVASGSPSSINAYGWYRRAPGKQRELVAGISSDGSKVYSDSVKGRFTISRDNAKNSVYLQMNSLRAEDTAVYYCYYFRTVSGSSQSYWGQGTLVTVSSGGGGSGGGSGGGGSGGGSHHHHHH
B6: anti-DLL3 trispecific protein, DLL3 binder 2A04 (protein, part only; not given: CD3 binder and albumin binder, part only)
chain, part: EVQLVESGGGLVQPGGSLTLSCVASGSTSSINAMAWYRRAPGKQRELVAGISSDGSKVYTDSVKGRFTISRDNAKNSVYLQMNSLRAEDTAVYYCYYFRTTSGSSMRYWGQGTLVTVSSGGGGSGGGSGGGGSGGGSHHHHHH
B7: anti-DLL3 trispecific protein, DLL3 binder 2C04 (protein, part only; not given: CD3 fragment and albumin sdAb, part only)
chain, part: EVQLVESGGGLVQPGGSLTLSCVASGSTSSRNAMGWYRRAPGKQRELVAGISSDGSKLYADSVKGRFTISRDNAKNSVYLQMNSLRAEDTAVYYCYYFRTVLGSSMRYWGQGTLVTVSSGGGGSGGGSGGGGSGGGSHHHHHH
B8: anti-DLL3 trispecific protein, DLL3 binder 2E05-M106Q (protein, part only; not given: CD3 binder and albumin binder, part only)
chain, part: EVQLVESGGGLVQPGGSLTLSCVASGSPSSINAYGWYRRAPGKQRELVAGISSDGSKVYSDSVKGRFTISRDNAKNSVYLQMNSLRAEDTAVYYCYYFRTVSGSSQSYWGQGTLVTVSSGGGGSGGGSGGGGSGGGSHHHHHH
B9: anti-DLL3 trispecific protein, DLL3 binder 1A011 (protein, part only; not given: anti-CD3 fragment and anti-albumin domain, part only)
chain, part: EVQLVESGGGLVQPGGSLTLSCVASGSTSSINAIGWYRRAPGKQRELVAGISSDGSKVYIDSVKGRFTISRDNAKNSVYLQMNSLRAEDTAVYYCYYFRTVSGSSYRYWGQGTLVTVSSGGGGSGGGSGGGGSGGGSHHHHHH
B10: anti-DLL3 trispecific protein, DLL3 binder 2E05-M106Y (protein, part only; not given: CD3 binder and albumin binder, part only)
chain, part: EVQLVESGGGLVQPGGSLTLSCVASGSPSSINAYGWYRRAPGKQRELVAGISSDGSKVYSDSVKGRFTISRDNAKNSVYLQMNSLRAEDTAVYYCYYFRTVSGSSYSYWGQGTLVTVSSGGGGSGGGSGGGGSGGGSHHHHHH
B11: anti-DLL3 trispecific protein, DLL3 binder 1H012 (protein, part only; not given: CD3 binder and albumin binder, part only)
chain, part: EVQLVESGGGLVQPGGSLTLSCVASGSTSSINAMGWYRRAPGKQRELVAGISSDGSKVYVDSVKGRFTISRDNAKNSVYLQMNSLRAEDTAVYYCYYFRTVSGSSMPYWGQGTLVTVSSGGGGSGGGSGGGGSGGGSHHHHHH
B12: anti-DLL3 trispecific protein, DLL3 binder 2E05 (protein, part only; not given: CD3 binder and albumin binder, part only)
chain, part: EVQLVESGGGLVQPGGSLTLSCVASGSPSSINAYGWYRRAPGKQRELVAGISSDGSKVYSDSVKGRFTISRDNAKNSVYLQMNSLRAEDTAVYYCYYFRTVSGSSMSYWGQGTLVTVSSGGGGSGGGSGGGGSGGGSHHHHHH
B13: anti-DLL3 trispecific protein, DLL3 binder 2H02 (protein, part only; not given: anti-CD3 fragment and anti-albumin domain, part only)
chain, part: EVQLVESGGGLVQPGGSLTLSCVASGSTSSINAMAWYRRAPGKQRELAAGISSDGSKVYADSVKGRFTISRDNAKNSVYLQMNSLRAEDTAVYYCYYFHTVSGSSMRYWGQGTLVTVSSGGGGSGGGSGGGGSGGGSHHHHHH
B14: anti-DLL3 trispecific protein containing 4D09-M34L (protein, part only; not given: anti-CD3 fragment and anti-albumin sdAb, part only)
chain, part: EVQLVESGGGLVQPGGSLTLSCAASGSSVKFLSLAWYRQAPGKKRELVAGISADGSTDYILSVKGRFTISRDNAKNSVYLQMNSLRAEDTAVYYCYAYEWTTRYTYWGQGTLVTVSSGGGGSGGGSGGGGSGGGSHHHHHH
B15: anti-DLL3 trispecific protein, DLL3 binder 4B07 (protein, part only; not given: anti-CD3 fragment and anti-albumin sdAb, part only)
chain, part: EVQLVESGGGLVQPGGSLTLSCAASGSSVGFLSMAWYRQAPGKKRELVAGISADGSTVYIDSVKGRFTISRDNAKNSVYLQMNSLRAEDTAVYYCYAYRWTTRYTYWGQGTLVTVSSGGGGSGGGSGGGGSGGGSHHHHHH
B16: anti-DLL3 trispecific protein, DLL3 binder 3A011 (protein, part only; not given: anti-CD3 fragment and anti-albumin domain, part only)
chain, part: EVQLVESGGGLVQPGGSLTLSCAASGSSVSFLSLAWYRQAPGKKRELVAGISTDGSTDYIDSVKGRFTISRDNAKNSVYLQMNSLRAEDTAVYYCYAYRWRTRYTYWGQGTLVTVSSGGGGSGGGSGGGGSGGGSHHHHHH
B17: anti-DLL3 trispecific protein, DLL3 binder 3H06 (protein, part only; not given: CD3 fragment and albumin sdAb, part only)
chain, part: EVQLVESGGGLVQPGGSLTLSCAASGSSVSQLSMAWYRQAPGKKRELVAGISADGSTDYFDSVKGRFTISRDNAKNSVYLQMNSLRAEDTAVYYCYAYRWTTRGTYWGQGTLVTVSSGGGGSGGGSGGGGSGGGSHHHHHH
B18: anti-DLL3 trispecific protein, DLL3 binder 4H011 (protein, part only; not given: CD3 fragment and albumin sdAb, part only)
chain, part: EVQLVESGGGLVQPGGSLTLSCAASGSSVSRLSMAWYRQAPGKKRELVAGISVDGSTDYIDSVKGRFTISRDNAKNSVYLQMNSLRAEDTAVYYCYAYRWTTRLTYWGQGTLVTVSSGGGGSGGGSGGGGSGGGSHHHHHH
B19: anti-DLL3 trispecific protein, DLL3 binder 3H011 (protein, part only; not given: CD3 binder and albumin binder, part only)
chain, part: EVQLVESGGGLVQPGGSLTLSCAASGSSVKFLSMAWYRQAPGKKRELVAGISADGSTVYIDSVKGRFTISRDNAKNSVYLQMNSLRAEDTAVYYCYAYRWPTRYTYWGQGTLVTVSSGGGGSGGGSGGGGSGGGSHHHHHH
B20: anti-DLL3 trispecific protein, DLL3 binder 4D09 (protein, part only; not given: anti-CD3 fragment and anti-albumin domain, part only)
chain, part: EVQLVESGGGLVQPGGSLTLSCAASGSSVKFLSMAWYRQAPGKKRELVAGISADGSTDYILSVKGRFTISRDNAKNSVYLQMNSLRAEDTAVYYCYAYEWTTRYTYWGQGTLVTVSSGGGGSGGGSGGGGSGGGSHHHHHH
B21: anti-DLL3 trispecific protein, DLL3 binder 3A02 (protein, part only; not given: CD3 binder and albumin binder, part only)
chain, part: EVQLVESGGGLVQPGGSLTLSCAASGSSVSFLSLAWYRQAPGKKRELVAGISADGSTAYIDSVKGRFTISRDNAKNSVYLQMNSLRAEDTAVYYCYAYRWRTRYTYWGQGTLVTVSSGGGGSGGGSGGGGSGGGSHHHHHH
B22: anti-DLL3 trispecific protein, DLL3 binder 4C06 (protein, part only; not given: anti-CD3 fragment and anti-albumin sdAb, part only)
chain, part: EVQLVESGGGLVQPGGSLTLSCAASNSSVSKLSMAWYRQAPGKKRELVAGISADGSTAYIDSVKGRFTISRDNAKNSVYLQMNSLRAEDTAVYYCYAYRWSTRYTYWGQGTLVTVSSGGGGSGGGSGGGGSGGGSHHHHHH
B23: anti-DLL3 trispecific protein, DLL3 binder 4H04 (protein, part only; not given: anti-CD3 fragment and anti-albumin sdAb, part only)
chain, part: EVQLVESGGGLVQPGGSLTLSCAASGSSVKFLSMAWYRQAPGKKRELVAGVSADGSTDYIDSVKGRFTISRDNAKNSVYLQMNSLRAEDTAVYYCYAYEWTTRYTYWGQGTLVTVSSGGGGSGGGSGGGGSGGGSHHHHHH
B24: anti-DLL3 trispecific protein, DLL3 binder 3C04 (protein, part only; not given: CD3 binder and albumin binder, part only)
chain, part: EVQLVESGGGLVQPGGSLTLSCAASGSHVSFLSMAWYRQAPGKKRELVAGISADGPTDYIDSVKGRFTISRDNAKNSVYLQMNSLRAEDTAVYYCYAYRWDTRYTYWGQGTLVTVSSGGGGSGGGSGGGGSGGGSHHHHHH
B25: anti-DLL3 trispecific protein, DLL3 binder 3D07 (protein, part only; not given: anti-CD3 and anti-albumin domains, part only)
chain, part: EVQLVESGGGLVQPGGSLTLSCAASGSSVRFLSMAWYRQAPGKKRELVAGISADGSTDYIDSVKGRFTISRDNAKNSVYLQMNSLRAEDTAVYYCYAYSWTTRYTYWGQGTLVTVSSGGGGSGGGSGGGGSGGGSHHHHHH
B26: anti-DLL3 trispecific protein, DLL3 binder 4D09-M34L (protein, part only; not given: anti-CD3 fragment and anti-albumin sdAb, part only)
chain, part: EVQLVESGGGLVQPGGSLTLSCAASGSSVKFLSLAWYRQAPGKKRELVAGISADGSTDYILSVKGRFTISRDNAKNSVYLQMNSLRAEDTAVYYCYAYEWTTRYTYWGQGTLVTVSSGGGGSGGGSGGGGSGGGSHHHHHH

Columns and labels:
[1] = molecular target: cynomolgus DLL3 protein (cynomolgus); assay: Octet, single concentration of trispecific (60 nM), cynomolgus DLL3
[2] = molecular target: biotinylated human DLL3 protein expressed as a human IgG1 fusion protein (human) (UniProt Q9NYJ7); assay: Octet, several concentrations of trispecific (60, 20, 6.67, 2.22 nM), human DLL3
[3] = molecular target: human DLL3 on DMS-153 cells (human) (UniProt Q9NYJ7); assay: cell-based or functional assay
[4] = molecular target: human DLL3 on DLL3 expressing cancer cell lines (human) (UniProt Q9NYJ7); assay: cell-based or functional assay
Chain of human DLL3 on DLL3 expressing cancer cell lines (human) (Q9NYJ7 27-618 limits assumed): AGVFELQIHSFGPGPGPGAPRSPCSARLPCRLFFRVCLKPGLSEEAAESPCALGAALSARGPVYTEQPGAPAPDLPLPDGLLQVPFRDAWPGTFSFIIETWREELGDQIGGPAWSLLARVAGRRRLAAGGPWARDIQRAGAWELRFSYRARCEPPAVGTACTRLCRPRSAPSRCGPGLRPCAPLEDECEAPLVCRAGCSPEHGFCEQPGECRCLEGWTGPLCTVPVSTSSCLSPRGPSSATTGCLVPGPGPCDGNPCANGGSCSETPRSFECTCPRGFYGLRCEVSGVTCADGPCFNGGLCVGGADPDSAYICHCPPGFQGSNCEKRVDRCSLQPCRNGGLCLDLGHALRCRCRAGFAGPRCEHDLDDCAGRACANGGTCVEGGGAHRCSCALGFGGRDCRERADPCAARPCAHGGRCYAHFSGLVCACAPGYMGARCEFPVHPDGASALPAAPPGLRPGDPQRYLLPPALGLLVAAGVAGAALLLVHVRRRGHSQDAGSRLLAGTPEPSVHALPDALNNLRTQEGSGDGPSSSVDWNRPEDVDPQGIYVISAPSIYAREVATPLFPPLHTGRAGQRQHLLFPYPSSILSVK

Chain of cynomolgus DLL3 protein (cynomolgus) (chain, as listed by the source): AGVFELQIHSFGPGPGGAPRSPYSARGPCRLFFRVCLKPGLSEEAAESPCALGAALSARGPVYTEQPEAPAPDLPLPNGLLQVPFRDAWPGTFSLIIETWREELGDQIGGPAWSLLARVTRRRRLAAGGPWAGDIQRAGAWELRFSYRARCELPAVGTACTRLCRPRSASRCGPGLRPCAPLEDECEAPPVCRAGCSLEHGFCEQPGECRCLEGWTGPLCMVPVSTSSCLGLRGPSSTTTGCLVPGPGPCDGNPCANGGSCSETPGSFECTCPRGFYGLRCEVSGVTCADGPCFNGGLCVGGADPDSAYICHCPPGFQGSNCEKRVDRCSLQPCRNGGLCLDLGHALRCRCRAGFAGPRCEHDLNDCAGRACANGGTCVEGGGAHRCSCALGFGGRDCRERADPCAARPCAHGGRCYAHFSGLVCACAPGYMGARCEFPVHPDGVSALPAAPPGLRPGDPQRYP
Chain of human DLL3 on DMS-153 cells (human) (Q9NYJ7 27-618 limits assumed): as the sequence (Q9NYJ7 27-618 limits assumed) above
Chain of biotinylated human DLL3 protein expressed as a human IgG1 fusion protein (human) (Q9NYJ7 27-492): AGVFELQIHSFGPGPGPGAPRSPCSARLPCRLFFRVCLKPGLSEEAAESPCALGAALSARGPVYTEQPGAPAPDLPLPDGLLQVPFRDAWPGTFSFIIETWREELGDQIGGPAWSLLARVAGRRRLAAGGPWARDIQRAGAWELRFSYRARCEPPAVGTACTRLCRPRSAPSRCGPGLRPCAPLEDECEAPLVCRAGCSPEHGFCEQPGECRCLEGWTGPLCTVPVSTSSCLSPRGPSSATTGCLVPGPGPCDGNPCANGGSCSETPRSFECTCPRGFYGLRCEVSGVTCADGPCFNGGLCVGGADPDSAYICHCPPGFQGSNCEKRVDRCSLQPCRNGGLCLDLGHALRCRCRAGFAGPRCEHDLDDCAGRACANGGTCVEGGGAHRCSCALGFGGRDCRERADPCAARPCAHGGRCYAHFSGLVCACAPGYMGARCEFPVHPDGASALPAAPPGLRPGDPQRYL

| Binder | Kd [1] | Kd [2] | DMS-153 TDCC EC50 (conditioned medium, human T cells) [3] | TDCC EC50 (CHO expressed, purified protein; method of Example 2, DMS-153 cells) [3] | other results |
| --- | --- | --- | --- | --- | --- |
| B1 | 3.4 nM | 4.4 nM | 0.059 nM | 0.12 nM | – |
| B2 | – | – | – | – | TDCC EC50, DMS-153 cells [4]: 28 nM; fold increase in TDCC potency over DH43 [4]: > 7 fold |
| B3 | – | – | 0.19 nM | – | – |
| B4 | – | – | 0.096 nM | – | – |
| B5 | – | – | – | – | TDCC EC50, DMS-153 cells, purified CHO protein [4]: 41 nM; fold more potent in TDCC than DH43 [4]: 6.6 fold |
| B6 | – | – | 0.081 nM | – | – |
| B7 | – | – | – | 0.043 nM | – |
| B8 | – | – | – | 0.041 nM | – |
| B9 | 3.6 nM | 3.5 nM | 0.051 nM | 0.17 nM | – |
| B10 | – | – | – | 0.063 nM | – |
| B11 | 4.3 nM | 2.9 nM | 0.028 nM | 0.063 nM | – |
| B12 | 4.8 nM | 3.5 nM | 0.033 nM | 0.072 nM | – |
| B13 | 5.2 nM | 4.4 nM | 0.031 nM | 0.096 nM | – |
| B14 | – | – | – | – | TDCC EC50, DMS-153 cells, purified CHO protein [4]: 54 nM; fold more potent in TDCC than DH6 [4]: 4.4 fold |
| B15 | – | – | 0.067 nM | – | – |
| B16 | 8.8 nM | 7.3 nM | – | – | – |
| B17 | – | – | 0.12 nM | – | – |
| B18 | 5.7 nM | 3.9 nM | 0.036 nM | – | – |
| B19 | – | – | 0.12 nM | – | – |
| B20 | 8.2 nM | 8.1 nM | 0.052 nM | 0.06 nM | – |
| B21 | 9.5 nM | 7.8 nM | – | – | – |
| B22 | – | – | 0.068 nM | – | – |
| B23 | – | – | 0.051 nM | – | – |
| B24 | 5.7 nM | 4 nM | 0.052 nM | – | – |
| B25 | – | – | 0.061 nM | – | – |
| B26 | – | – | – | 0.054 nM | – |
